Assay results taken from patent US20160368957A1.

Target: recombinant human IL-17A (human) (UniProt Q16552)
Test: cell-based or functional assay

Sequence of recombinant human IL-17A (human) (Q16552 20-155 limits assumed): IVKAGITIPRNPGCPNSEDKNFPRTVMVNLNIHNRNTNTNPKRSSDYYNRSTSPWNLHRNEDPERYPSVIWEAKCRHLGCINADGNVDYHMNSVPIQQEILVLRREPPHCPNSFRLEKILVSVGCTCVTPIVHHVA

human IL-17A receptor-Fc chimera (R&D Systems) (from UniProt Q96F46 33-320) (Fc fusion)
IC50 of inhibition of IL-17A induced IL-6 production in NHDF cells (IL-17A 50 ng/ml): 1 nM | IC50 value (nM), IL-6 production by NHDF cells with IL-17A (1 ng/ml) and TNF alpha: 0.61 nM
